From PMC9719539, “Single-molecule characterization of subtype-specific β1 integrin mechanics” (Nature Communications, 2022)

Key:
[1] = target: integrin αVβ3, intact, on K562 αVβ3 stable transfectants (human) (UniProt P06756); assay: flow cytometry on cells; saturation binding of cRGDfK-TF5WS to K562 transfectants in L15 medium with 1% BSA and 1 mM Mn2+, no washing; background MFI measured with 10 mM EDTA and subtracted
[2] = target: integrin αVβ5, intact, on K562 αVβ5 stable transfectants (human) (UniProt P06756); assay: as above
[3] = target: integrin α5β1, intact, on wild type K562 cells (human (endogenous in K562)) (UniProt P08648); assay: flow cytometry on cells; saturation binding of cRGDfK-TF5WS to K562 cells in L15 with 2 µM 12G10 Fab, which stabilizes the EO state (intrinsic affinity for the EO state); no washing
Chain of integrin α5β1, intact, on wild type K562 cells (human (endogenous in K562)) (P08648 42-1049, chain 1 of 2): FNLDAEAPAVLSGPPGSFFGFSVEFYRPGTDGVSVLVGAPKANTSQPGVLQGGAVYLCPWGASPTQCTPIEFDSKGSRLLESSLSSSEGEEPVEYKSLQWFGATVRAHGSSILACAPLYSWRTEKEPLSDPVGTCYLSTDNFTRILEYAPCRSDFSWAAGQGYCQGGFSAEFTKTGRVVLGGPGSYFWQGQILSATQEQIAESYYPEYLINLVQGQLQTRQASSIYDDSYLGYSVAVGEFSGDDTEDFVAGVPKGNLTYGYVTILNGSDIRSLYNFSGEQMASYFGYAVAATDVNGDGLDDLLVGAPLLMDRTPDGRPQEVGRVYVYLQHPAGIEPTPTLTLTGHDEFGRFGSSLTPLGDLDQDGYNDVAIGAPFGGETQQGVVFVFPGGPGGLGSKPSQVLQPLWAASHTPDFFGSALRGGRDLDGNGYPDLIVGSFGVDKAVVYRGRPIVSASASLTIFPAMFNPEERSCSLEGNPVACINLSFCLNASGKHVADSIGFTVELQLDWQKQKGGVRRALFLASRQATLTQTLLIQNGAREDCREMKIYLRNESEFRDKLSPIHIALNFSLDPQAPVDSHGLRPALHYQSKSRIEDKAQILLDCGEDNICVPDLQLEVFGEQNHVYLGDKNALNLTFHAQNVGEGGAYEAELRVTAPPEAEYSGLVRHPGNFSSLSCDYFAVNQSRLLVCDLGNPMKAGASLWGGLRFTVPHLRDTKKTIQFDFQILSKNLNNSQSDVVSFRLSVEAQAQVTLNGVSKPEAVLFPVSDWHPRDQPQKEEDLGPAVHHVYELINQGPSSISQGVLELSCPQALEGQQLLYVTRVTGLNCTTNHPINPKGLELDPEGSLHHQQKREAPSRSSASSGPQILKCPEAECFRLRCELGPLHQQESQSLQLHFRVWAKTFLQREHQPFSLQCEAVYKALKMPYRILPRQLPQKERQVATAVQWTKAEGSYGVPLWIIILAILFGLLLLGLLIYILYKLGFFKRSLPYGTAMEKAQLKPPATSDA
Chain of integrin α5β1, intact, on wild type K562 cells (human (endogenous in K562)) (P05556 21-798, chain 2 of 2, further chain): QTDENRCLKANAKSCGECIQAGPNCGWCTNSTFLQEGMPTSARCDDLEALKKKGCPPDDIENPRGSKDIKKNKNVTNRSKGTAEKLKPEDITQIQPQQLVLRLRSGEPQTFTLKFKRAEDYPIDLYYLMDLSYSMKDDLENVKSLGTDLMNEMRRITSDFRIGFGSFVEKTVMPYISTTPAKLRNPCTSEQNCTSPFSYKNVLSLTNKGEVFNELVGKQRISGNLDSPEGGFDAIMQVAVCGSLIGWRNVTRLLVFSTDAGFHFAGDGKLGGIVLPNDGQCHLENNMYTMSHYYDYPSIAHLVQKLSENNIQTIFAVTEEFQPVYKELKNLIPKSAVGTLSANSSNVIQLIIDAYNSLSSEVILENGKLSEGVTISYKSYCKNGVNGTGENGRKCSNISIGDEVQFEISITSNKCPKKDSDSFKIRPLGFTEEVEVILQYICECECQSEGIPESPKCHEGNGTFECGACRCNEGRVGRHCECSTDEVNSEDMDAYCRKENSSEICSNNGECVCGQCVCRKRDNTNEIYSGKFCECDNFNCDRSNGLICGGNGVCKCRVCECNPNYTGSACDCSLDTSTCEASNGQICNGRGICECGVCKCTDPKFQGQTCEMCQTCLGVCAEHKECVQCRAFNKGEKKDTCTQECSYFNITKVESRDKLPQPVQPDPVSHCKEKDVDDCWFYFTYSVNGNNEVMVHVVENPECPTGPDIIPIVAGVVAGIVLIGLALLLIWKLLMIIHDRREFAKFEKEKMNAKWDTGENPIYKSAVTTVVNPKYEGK

Chain of integrin αVβ5, intact, on K562 αVβ5 stable transfectants (human) (P06756 31-1048, chain 1 of 2): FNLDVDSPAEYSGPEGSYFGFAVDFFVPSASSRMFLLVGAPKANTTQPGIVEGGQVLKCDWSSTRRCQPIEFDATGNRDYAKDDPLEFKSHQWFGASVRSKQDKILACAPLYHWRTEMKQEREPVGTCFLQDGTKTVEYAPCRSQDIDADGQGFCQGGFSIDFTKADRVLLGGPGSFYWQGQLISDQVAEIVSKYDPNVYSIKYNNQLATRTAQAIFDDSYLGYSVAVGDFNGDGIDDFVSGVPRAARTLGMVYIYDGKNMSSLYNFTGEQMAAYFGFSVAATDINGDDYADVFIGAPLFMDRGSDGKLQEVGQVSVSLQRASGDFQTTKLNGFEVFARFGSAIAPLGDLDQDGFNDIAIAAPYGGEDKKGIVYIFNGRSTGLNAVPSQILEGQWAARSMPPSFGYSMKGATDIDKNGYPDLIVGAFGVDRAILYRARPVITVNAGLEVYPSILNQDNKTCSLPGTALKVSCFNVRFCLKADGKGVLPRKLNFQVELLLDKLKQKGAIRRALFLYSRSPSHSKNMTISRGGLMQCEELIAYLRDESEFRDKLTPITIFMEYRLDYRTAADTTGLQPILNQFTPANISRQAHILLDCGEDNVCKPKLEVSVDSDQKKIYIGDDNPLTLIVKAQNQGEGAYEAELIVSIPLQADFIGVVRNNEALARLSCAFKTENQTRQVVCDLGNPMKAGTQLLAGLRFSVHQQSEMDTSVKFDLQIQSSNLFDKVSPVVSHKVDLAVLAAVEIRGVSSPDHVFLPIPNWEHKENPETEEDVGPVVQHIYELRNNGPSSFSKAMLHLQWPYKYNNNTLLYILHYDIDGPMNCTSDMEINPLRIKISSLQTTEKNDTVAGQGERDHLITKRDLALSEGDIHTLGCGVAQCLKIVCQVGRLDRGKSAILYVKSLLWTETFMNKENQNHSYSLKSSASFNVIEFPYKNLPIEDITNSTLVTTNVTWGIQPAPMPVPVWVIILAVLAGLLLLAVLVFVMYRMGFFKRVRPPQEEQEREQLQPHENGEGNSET
Chain of integrin αVβ5, intact, on K562 αVβ5 stable transfectants (human) (P18084 24-799, chain 2 of 2, further chain): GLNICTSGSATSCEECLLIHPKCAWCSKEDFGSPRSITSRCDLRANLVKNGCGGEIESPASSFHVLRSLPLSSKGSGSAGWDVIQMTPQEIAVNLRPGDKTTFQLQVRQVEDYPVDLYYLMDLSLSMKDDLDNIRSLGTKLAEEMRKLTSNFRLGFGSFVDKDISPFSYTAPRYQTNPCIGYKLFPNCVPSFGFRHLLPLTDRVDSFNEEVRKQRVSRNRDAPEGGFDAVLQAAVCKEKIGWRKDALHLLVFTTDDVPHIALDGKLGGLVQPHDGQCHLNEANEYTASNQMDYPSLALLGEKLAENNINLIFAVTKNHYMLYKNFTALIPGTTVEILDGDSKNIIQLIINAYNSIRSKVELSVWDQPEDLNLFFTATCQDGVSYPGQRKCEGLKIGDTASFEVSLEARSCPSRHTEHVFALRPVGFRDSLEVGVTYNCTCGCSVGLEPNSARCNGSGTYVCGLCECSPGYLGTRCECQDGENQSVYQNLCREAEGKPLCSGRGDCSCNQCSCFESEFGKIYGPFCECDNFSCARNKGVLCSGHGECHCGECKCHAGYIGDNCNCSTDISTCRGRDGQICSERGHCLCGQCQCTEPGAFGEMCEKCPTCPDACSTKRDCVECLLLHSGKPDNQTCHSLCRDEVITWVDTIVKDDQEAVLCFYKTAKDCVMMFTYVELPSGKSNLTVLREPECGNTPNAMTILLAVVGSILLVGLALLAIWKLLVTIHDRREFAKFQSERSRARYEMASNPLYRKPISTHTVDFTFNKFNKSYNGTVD
Chain of integrin αVβ3, intact, on K562 αVβ3 stable transfectants (human) (P06756 31-1048, chain 1 of 2): as the sequence (P06756 31-1048, chain 1 of 2) above
Chain of integrin αVβ3, intact, on K562 αVβ3 stable transfectants (human) (P05106 27-788, chain 2 of 2, further chain): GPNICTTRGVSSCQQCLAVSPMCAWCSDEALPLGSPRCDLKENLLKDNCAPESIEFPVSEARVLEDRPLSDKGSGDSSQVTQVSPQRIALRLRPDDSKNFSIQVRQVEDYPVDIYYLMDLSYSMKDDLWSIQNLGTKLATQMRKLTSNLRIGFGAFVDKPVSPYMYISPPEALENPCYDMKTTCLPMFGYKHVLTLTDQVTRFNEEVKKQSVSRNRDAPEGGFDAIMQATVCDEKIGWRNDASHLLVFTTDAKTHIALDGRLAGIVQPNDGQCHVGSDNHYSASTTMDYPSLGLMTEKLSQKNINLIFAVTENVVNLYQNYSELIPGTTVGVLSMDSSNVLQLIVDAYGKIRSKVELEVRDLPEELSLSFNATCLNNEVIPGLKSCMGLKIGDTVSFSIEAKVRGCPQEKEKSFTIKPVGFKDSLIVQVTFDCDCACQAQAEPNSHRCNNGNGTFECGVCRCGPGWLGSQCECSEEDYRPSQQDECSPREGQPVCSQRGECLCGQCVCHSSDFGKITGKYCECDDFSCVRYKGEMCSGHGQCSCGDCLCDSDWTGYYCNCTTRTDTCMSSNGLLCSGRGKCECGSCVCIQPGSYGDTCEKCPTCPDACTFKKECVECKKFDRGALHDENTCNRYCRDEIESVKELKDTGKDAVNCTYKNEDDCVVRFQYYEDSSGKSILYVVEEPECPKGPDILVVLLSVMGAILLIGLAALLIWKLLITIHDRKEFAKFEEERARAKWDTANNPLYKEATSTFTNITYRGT

cRGDfK peptide with lysine side chain conjugated with TideFluor5WS
Kd [1]: 28.3 nM
Kd [2]: 23.9 nM
Kd [3]: 86 nM
